Test [1] concerns the target T1, recombinant His-tagged full-length ERG (UniProt P11308 1-479, biotinylated with NHS-PEG4 biotin for the OctetRED assays).
T1 construct: mature; Baculovirus expression in SF9 cells, Ni-NTA purified; also called wild-type ERG; wtERG; not shown: His tag
T1 sequence (looked up): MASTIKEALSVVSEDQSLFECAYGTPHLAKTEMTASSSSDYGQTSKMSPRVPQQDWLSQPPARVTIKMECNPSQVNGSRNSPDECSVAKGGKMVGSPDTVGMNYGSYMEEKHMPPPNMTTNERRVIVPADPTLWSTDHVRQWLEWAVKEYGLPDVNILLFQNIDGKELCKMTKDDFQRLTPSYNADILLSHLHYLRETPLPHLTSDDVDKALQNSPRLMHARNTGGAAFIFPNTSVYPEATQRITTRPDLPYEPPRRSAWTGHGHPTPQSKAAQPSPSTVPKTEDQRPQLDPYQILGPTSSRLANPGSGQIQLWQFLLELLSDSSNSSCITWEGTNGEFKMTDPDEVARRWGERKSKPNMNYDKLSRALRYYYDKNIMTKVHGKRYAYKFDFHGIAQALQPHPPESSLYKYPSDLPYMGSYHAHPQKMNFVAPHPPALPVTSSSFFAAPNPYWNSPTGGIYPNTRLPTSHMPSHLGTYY
Briefly: binding assay of capped EIP1 variants (FIG. 13); capped EIP1, L5E.

The target of test [2] is T1, recombinant His-tagged full-length ERG. Briefly: Kd table of synthetic peptides on ERG; assay not given.
The target is the same in test [3]. As to the kind of experiment: binding assay of capped EIP1 variants (FIG. 13); capped EIP1, Y4E.
The target is the same in test [4]. Briefly: binding assay of capped EIP1 variants (FIG. 13); capped EIP1, Y4K.
The target in test [5] is T2, Halo-tagged full-length ETS1 (UniProt P14921 1-441).
T2 construct: mature; not shown: Halo-tag at the N-terminus
T2 sequence (looked up): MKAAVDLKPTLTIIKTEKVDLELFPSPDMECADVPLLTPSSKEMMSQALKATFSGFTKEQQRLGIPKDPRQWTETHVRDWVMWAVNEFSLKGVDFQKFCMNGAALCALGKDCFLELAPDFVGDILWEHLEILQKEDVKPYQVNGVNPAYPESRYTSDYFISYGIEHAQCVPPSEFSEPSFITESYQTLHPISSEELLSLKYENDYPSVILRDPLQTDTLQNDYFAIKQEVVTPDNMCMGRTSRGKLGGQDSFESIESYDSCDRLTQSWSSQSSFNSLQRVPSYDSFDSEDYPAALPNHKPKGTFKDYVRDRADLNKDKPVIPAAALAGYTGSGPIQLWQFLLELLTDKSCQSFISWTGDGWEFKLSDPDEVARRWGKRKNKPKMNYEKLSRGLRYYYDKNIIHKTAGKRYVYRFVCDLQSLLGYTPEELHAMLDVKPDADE
As to the kind of experiment: pull-down of in vitro translated Halo-tagged protein with biotinylated peptide, anti-Halo immunoblot [cont'd]. Background: In western blotting, separated proteins are transferred to a membrane and probed.

The target in test [6] is T3, Halo-tagged full-length ETV1 (UniProt P50549 1-477).
T3 construct: mature; not shown: Halo-tag at the N-terminus
T3 sequence (looked up): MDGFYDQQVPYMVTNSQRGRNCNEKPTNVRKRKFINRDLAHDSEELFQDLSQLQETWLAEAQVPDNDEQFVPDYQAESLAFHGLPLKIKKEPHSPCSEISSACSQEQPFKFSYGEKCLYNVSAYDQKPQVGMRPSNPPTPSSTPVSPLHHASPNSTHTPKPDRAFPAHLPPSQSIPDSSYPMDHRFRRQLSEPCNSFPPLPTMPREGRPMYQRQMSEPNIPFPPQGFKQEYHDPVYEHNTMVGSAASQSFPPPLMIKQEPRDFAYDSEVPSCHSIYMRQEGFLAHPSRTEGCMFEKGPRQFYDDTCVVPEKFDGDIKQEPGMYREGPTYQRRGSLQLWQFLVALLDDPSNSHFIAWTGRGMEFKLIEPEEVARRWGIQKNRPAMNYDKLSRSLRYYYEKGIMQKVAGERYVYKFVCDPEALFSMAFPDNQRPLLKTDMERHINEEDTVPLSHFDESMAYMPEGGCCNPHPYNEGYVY
Described as above.

The target in test [7] is T4, Halo-tagged full-length ETV6 (UniProt P41212 1-452).
T4 construct: mature; not shown: Halo-tag at the N-terminus
T4 sequence (looked up): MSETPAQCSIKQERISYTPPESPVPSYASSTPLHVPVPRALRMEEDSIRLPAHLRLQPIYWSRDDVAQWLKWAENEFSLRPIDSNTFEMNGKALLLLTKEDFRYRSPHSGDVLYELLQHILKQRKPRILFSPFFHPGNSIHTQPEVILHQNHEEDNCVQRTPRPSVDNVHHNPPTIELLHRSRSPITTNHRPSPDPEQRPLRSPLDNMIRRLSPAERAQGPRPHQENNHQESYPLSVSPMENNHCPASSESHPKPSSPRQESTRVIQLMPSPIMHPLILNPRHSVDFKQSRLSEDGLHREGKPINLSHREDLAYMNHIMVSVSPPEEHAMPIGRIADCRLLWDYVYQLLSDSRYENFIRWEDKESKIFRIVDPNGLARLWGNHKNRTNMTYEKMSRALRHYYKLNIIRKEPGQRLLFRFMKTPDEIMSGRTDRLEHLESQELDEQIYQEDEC
Described as above.

Test [8] concerns the target T5, Halo-tagged full-length Fli1 (UniProt Q01543 1-452).
T5 construct: mature; not shown: Halo-tag at the N-terminus
T5 sequence (looked up): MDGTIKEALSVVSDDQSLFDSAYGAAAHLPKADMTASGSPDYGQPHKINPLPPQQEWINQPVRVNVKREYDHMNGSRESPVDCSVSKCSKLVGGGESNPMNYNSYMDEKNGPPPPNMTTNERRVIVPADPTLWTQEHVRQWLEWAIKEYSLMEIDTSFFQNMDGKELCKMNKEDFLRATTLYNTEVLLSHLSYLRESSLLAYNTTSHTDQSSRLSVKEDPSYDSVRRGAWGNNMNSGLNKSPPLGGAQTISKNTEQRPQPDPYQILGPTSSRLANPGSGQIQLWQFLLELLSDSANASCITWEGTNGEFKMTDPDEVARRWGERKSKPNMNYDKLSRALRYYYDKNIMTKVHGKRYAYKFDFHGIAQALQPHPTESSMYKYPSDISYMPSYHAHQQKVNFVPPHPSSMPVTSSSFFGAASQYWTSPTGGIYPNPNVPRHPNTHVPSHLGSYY
The description is as above.

The target of test [9] is T6, Halo-tagged full-length ERG (UniProt P11308 1-479).
T6 construct: mature; In vitro transcription/translation in wheat germ lysate; also called Halo-ERG fusion protein; not shown: HaloTag (about 35 kDa), N-terminal
T6 sequence (looked up): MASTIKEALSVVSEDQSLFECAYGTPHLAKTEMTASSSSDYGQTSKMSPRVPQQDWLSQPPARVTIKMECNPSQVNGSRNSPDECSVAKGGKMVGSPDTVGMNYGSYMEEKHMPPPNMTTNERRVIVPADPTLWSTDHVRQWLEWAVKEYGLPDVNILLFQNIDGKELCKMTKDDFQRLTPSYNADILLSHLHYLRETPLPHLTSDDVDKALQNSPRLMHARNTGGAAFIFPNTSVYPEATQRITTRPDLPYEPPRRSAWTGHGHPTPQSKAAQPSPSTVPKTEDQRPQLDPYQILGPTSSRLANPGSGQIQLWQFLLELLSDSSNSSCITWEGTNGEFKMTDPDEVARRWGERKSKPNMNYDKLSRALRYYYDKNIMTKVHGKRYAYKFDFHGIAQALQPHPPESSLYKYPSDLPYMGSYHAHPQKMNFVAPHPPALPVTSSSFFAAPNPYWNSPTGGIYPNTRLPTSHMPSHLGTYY
The test is described as above.

Test [10] addresses T7, TMPRSS2:ERG gene fusion product, endogenous in VCaP cells (UniProt P11308 33-479, limits assumed).
T7 construct: In cell lysates, in cells or in xenograft tumors; also called endogenous ERG; VCaP ERG
T7 sequence (looked up): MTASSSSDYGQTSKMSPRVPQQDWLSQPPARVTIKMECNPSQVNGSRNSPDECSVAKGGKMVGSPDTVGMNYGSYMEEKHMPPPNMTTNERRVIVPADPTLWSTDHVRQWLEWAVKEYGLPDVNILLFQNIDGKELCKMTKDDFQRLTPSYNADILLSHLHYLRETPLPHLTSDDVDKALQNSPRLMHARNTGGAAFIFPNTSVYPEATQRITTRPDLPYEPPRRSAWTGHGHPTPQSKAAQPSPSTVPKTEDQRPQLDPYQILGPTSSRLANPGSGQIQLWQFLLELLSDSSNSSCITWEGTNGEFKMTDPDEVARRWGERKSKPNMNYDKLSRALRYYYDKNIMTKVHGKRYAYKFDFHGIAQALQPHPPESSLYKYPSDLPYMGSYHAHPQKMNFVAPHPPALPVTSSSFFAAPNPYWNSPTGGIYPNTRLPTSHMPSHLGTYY
Briefly: pull-down of VCaP lysate with biotinylated peptide, ERG immunoblot.
Experimental: Approximately 1 mg of soluble VCaP cell lysate prepared in RIPA buffer (Invitrogen) was incubated with varying amounts of biotinylated peptides for 2 hours at 4° C. HaloLink agarose beads (20 μl) were added to the peptide-lysate mixture and incubated for an additional 4 hours. Beads were then pelleted by centrifugation, washed three times in PBS-T and loaded into an SDSPAGE gel followed by Western blot analysis. Total VCaP cell lysate was loaded for positive control.

Test [11] concerns the target T8, wild-type ERG endogenous in HUVEC cells (human, UniProt P11308 1-479, limits assumed).
T8 construct: also called HUVEC ERG
T8 sequence (looked up): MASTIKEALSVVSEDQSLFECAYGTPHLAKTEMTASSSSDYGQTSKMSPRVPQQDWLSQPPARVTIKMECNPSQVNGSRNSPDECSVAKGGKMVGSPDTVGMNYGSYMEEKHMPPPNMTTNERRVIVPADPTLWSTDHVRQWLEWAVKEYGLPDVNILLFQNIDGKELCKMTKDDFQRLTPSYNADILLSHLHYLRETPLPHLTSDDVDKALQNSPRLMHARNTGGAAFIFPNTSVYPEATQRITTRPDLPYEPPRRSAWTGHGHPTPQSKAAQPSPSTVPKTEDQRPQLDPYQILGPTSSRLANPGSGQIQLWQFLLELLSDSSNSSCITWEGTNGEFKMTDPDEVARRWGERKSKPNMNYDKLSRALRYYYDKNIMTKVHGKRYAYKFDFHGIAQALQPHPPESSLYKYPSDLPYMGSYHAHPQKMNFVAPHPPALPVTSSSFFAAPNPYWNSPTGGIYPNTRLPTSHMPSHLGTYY
As to the kind of experiment: pull-down of whole cell lysate with biotinylated peptide, WB: αERG.

Test [12] deals with T9, wild-type ERG endogenous in MS1 mouse endothelial cells (mouse, UniProt P81270 1-486, limits assumed).
T9 construct: also called mERG; MS1 ERG
T9 sequence (looked up): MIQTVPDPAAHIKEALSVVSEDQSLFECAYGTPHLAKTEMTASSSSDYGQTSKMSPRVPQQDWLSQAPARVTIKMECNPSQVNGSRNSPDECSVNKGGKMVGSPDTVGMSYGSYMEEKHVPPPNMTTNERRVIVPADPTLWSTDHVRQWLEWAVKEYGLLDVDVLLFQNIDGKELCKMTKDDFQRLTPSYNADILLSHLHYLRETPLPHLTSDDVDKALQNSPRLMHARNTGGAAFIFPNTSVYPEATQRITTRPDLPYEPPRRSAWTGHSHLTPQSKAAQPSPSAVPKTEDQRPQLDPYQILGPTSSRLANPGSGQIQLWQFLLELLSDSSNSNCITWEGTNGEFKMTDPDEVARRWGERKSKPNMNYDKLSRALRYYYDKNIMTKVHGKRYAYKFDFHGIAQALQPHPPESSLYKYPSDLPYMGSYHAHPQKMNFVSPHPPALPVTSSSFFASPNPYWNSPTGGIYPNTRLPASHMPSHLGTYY
The test is described as above.

For test [13], the target named is T10, endogenous ETV1 protein of LNCaP cells (UniProt P50549 1-477, limits assumed).
T10 sequence (looked up): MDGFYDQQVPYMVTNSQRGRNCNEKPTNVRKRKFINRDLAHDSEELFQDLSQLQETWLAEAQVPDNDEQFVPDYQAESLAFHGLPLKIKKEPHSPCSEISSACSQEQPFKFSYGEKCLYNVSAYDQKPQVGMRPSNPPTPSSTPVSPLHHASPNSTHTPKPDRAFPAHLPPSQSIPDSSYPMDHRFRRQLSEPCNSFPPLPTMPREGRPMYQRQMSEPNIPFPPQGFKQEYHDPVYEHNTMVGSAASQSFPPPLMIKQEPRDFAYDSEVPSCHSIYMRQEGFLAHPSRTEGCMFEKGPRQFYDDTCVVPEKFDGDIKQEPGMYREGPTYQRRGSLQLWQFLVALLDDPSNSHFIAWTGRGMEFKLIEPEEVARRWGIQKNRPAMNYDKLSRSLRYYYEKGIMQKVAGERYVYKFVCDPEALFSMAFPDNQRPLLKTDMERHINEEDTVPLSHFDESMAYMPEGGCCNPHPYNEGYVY
Briefly: pull-down of cell lysate with biotinylated peptide, immunoblot αETV1.

Test [14] has as its target T1, recombinant His-tagged full-length ERG. As to the kind of experiment: pull-down of purified recombinant protein with biotinylated peptide, immunoblot.
The target is the same in test [15]. As to the kind of experiment: OctetRED biolayer interferometry, biotinylated ERG on streptavidin sensors, peptide in solution. For orientation: In BLI a coated tip is dipped into the sample, and binding shifts an interference pattern.
Experimental: (§1) The interaction coefficients between ERG and synthetic peptides or peptidomimetics were determined by biolayer interferometry technology using the Octet Red system (ForteBio). Purified ERG and GUS proteins were biotinylated by EZLink NHS-PEG4 Biotinylation Kit (Thermo Scientific) following the manufacturer's protocol and any unincorporated biotin was removed from the reactions with Zeba 2 ml desalt columns (Thermo). Biotinylated proteins (500 μg/ml) were then incubated with super streptavidin biosensors in binding buffer (20 mM HEPES pH 7.4, 150 mM NaCl), blocked with 10 μg/ml biocytin and washed three times in binding buffer. Peptides were serially diluted in binding buffer, mixed with the protein-coupled biosensors and peptidomimetic:protein association/dissociation was monitored for 10 min at 25° C. Nonspecific binding from the signal obtained from peptidomimetic:GUS interactions was subtracted from that of peptidomimetic:ERG interactions and baseline signal drift was controlled by monitoring immobilized ERG without peptide. Octet Red analysis software was used to analyze the data.
Test [16] has as its target T6, Halo-tagged full-length ERG. Briefly: competitive pull-down: Halo-ERG with purified DNA-PKcs or GST-AR and peptide, HaloLink beads, immunoblot.
Experimental: Halo-ERG fusion protein was expressed using in vitro transcription/translation system as described above. […] Protein mixtures were incubated with or without the peptides in PBS-T (0.1% Tween) at 4° C. overnight. […] The next day 10 μl of HaloLink beads were mixed with the protein-peptide mixture, incubated at RT for 1 hour, washed with 4× in PBS-T and eluted into SDS sample buffer. […] HaloLink beads without incubation with fusion proteins were used as negative controls.
The target of test [17] is T1, recombinant His-tagged full-length ERG. As to the kind of experiment: OctetRED biolayer interferometry, steady-state analysis.
Experimental: as §1

The record followed here is patent publication US20180273595A1 (REGENTS OF THE UNIVERSITY OF MICHIGAN, published 2018).

Where no end group is shown, it is not given here. The star is where a group is joined. Biotin = O=C1N[C@H]2[C@H](CS[C@H]2CCCCC(=O)*)N1

In the case of Ac-LPPYEFT-NH2 [capped EIP1 with L at position five mutated to E], the Kd (as a rule, the equilibrium constant for the complex coming apart) was determined as 5.1 µM in [1] and 5.09 µM in test [2].
With Ac-LPPELFT-NH2 [capped EIP1 with Y at position four mutated to E], the Kd in test [3] and in [2] was 3.6 µM throughout.
Take Ac-LPPKLFT-NH2 [capped EIP1 with Y at position four mutated to K]: the Kd in [4] stood at 4.3 µM; in test [2] it was 4.27 µM.

B1: Biotin-HSKINPT (peptide)
peptide: Biotin-HSKINPT
notes: Control of the pull-down with Biotin-LSFGSLP; also called control peptide Biotin-HSKINPT
Take B1: the binding result in test [5], in test [6], in test [7], in test [8] and in test [9] was “no binding” each time.
Regarding LPPALFT (also: biotin, position not given here, also called biotin-muEIP1) [biotinylated muEIP1 peptide], the binding result was “no binding (tested: 20 µM)” in test [10]; “no binding” in test [11]; “no binding” in test [12]; “no binding (tested: 50 µM)” in [13]; “no binding” in test [14].
Take LPPALFT (Alanine substitution control) [muEIP1 synthetic peptide LPPALFT]: the binding result in test [15] is given as “no binding (tested: 20 µM)”; in [16], “no binding (tested: 50 µM)”.
LPPTFLY [scrambled peptide LPPTFLY]: the binding result in test [17] is recorded as “no binding (tested: 20 µM)”.
